Data set [1] relates to T1, O=C1CCNC(=O)N1.
T1 construct: recombinant from pET-Hyd in E. coli BL21(DE3); 52 kDa; heat-treated, ultrafiltered, desalted
The data set can be described thus: purified protein. The settings on record: 0.1 M MOPS pH 8.0, 0.5 mM MnSO4, temperature of kinetics not stated (activity assays at 60 °C). It counts as biochemical, Geobacillus stearothermophilus.

Data set [2] relates to T2, O=C1NC(=O)C(Cc2c[nH]c3ccccc23)N1.
T2 construct: recombinant from pET-Hyd in E. coli BL21(DE3); 52 kDa; heat-treated, ultrafiltered, desalted
The experiment in a line: purified protein. The class given is biochemical, Geobacillus stearothermophilus. As to conditions: 0.1 M MOPS pH 8.0, 0.5 mM MnSO4, temperature of kinetics not stated (activity assays at 60 °C).

As for “D-hydantoinase (dihydropyrimidinase) of G. stearothermophilus ATCC 31783 (Geobacillus stearothermophilus; I190A)”, in data set [1], the Km – broadly, the substrate concentration at which the rate is half of its maximum – turned out to be 1120 ± 610 µM; the kcat (usually the number of substrate molecules converted per active site and unit of time at saturation) amounted to 7.99 ± 0.9 s⁻¹; the kcat/Km (as a rule, the second-order rate constant that governs catalysis at low substrate concentration) was found to be 7090 ± 3200 M⁻¹ s⁻¹.

As for “D-hydantoinase (dihydropyrimidinase) of G. stearothermophilus ATCC 31783 (Geobacillus stearothermophilus; F159A)”, in data set [2], the Km turned out to be 600 ± 580 µM, the kcat came to 4.16 ± 0.60 s⁻¹ and the kcat/Km stood at 6890 ± 5830 M⁻¹ s⁻¹. For the same substance, in data set [1], the Km was determined as 2890 ± 1270 µM, the kcat was 21.8 ± 2.6 s⁻¹ and the specificity constant (kcat/Km) stood at 7530 ± 2500 M⁻¹ s⁻¹.

Turning to “D-hydantoinase (dihydropyrimidinase) of G. stearothermophilus ATCC 31783 (Geobacillus stearothermophilus; W287A)”, in data set [2], the Km is 1660 ± 850 µM, the catalytic constant (kcat) amounted to 6.83 ± 0.97 s⁻¹ and the kcat/Km amounted to 4130 ± 1630 M⁻¹ s⁻¹. In addition, in data set [1], the Km turned out to be 430 ± 130 µM, the kcat was 2.76 ± 0.17 s⁻¹ and the kcat/Km was found to be 6530 ± 1830 M⁻¹ s⁻¹.

Consider “D-hydantoinase (dihydropyrimidinase) of G. stearothermophilus ATCC 31783 (Geobacillus stearothermophilus)”, for which, in data set [1], the Km came out at 970 ± 220 µM, the kcat is 11.2 ± 0.7 s⁻¹ and the kcat/Km was 11300 ± 2200 M⁻¹ s⁻¹.

Consider “D-hydantoinase (dihydropyrimidinase) of G. stearothermophilus ATCC 31783 (Geobacillus stearothermophilus; F159A/W287A)”, for which, in data set [2], the Km was 4300 ± 400 µM, the kcat turned out to be 12.5 ± 0.50 s⁻¹ and the kcat/Km was found to be 2900 ± 170 M⁻¹ s⁻¹. Also, in data set [1], the Km was 5610 ± 2320 µM, the kcat came out at 6.16 ± 1 s⁻¹ and the kcat/Km is 1100 ± 300 M⁻¹ s⁻¹.

The values above are taken from article PMC7175128, “Rational Engineering of the Substrate Specificity of a Thermostable D-Hydantoinase (Dihydropyrimidinase)” (High-Throughput, 2020).
